Experimental data: patent publication US8715676B2, “Production and uses of type I ribosome inactivating proteins” (priority 2008, dated 2014)
Where two headings read alike, the source gives them in different places.

Tests used:
[1] = test system: MDA 231 human breast cancer cells; experiment: Cytotoxicity in cancer cells in vitro (TOX8 viability, 72 h); format: cell-based
Experimental: (§1) Human breast cancer cells, MDA 231 and BT 474, were grown in tissue culture to assay for the concentration at which 50% of the cells are inhibited from growing (IC50). The cells were seeded in 96-well plates at 5000 cells per well and grown overnight in RPMI 1640 supplemented with 10% fetal bovine serum and 15 μg/ml insulin. The culture medium was replaced. The recombinant cucurmosin, natural cucurmosin and vinblastine were added to the cells at various concentrations. Likewise, the non-cancer cells, LO2 and lymphocytes were treated with these drugs at different concentrations. The cells were grown for an additional 72 hours and then 20 μl of TOX8 was added to each well. The cells were incubated another 8 hours at 37° C., 5% CO2 to allow time for the cells to metabolize the TOX8 indicator. Absorbance readings at 600 nm were taken of each well. Viability was indicated by a drop in absorbance at 600 nm readings.

[2] = test system: BT 474 human breast cancer cells; experiment: as above; format: cell-based; settings: TB474 (BT 474) cells
Experimental: as §1

[3] = test system: lymphocytes (non-cancer cells); experiment: Cytotoxicity in non-cancer cells in vitro (TOX8 viability, 72 h); format: cell-based
Experimental: as §1

LO2 non-cancer cells = experiment: as above; format: cell-based
Experimental: as §1

A549 tumors = experiment: Treating A549 tumors in mice, intratumoral injection; format: in vivo, NOD/SCID mice; settings: for Tumor growth: Day 1 to Day 11
Experimental: (§2) Human lung cancer cells, […] or A549, were used to induce tumor formation in backs of NOD/SCID mice (JAX, #001303). The cells were maintained in culture. In each experiment, 5 million cells were injected into the back of the mice. Tumors formed in 2 to 3 weeks. Tumor sizes were measured using a digital caliper and then areas calculated.
In another group of mice, carrying tumors derived from A549 cells, 5 or 50 μg treatments of directly injected recombinant cucurmosin into the tumors was able to reduce tumors by 15 and 33%, respectively while the negative control saw the tumor grow 150% (TABLE 3).

HMEL tumors [4] = experiment: Treating HMEL tumors in mice by tail vein injection; format: in vivo, NOD/SCID mice
Experimental: as §2
(§3) In one experiment, either 5 or 50 μg recombinant cucurmosin was injected into the HMEL tumors in 100 μl of saline solution on the days that the tumors were measured. Mouse 2 had tumors in both sides of its back which were each treated separately. Over the 18 day period, the mouse injected with no cucurmosin saw its tumor increase 267% (TABLE 2). […] Mouse 1 and 3 with HMEL tumors after 18 days intratumoral treatment (Table 2), were continually administered recombinant cucurmosin by tail vein injection using 50 μg of recombinant cucurmosin in 100 μl saline solution at day 0 (the same day as day 18 of intratumoral treatment) and day 5. […] The results of these tests are depicted in FIG. 1.

HMEL tumors [5] = experiment: Treating HMEL tumors in mice, intratumoral injection; format: in vivo, NOD/SCID mice; settings: for Tumor growth: over 18 days
Experimental: as §2, §3

CC[C@]1(O)C[C@@H]2CN(CCc3c([nH]c4ccccc34)[C@@](C(=O)OC)(c3cc4c(cc3OC)N(C)[C@H]3[C@@](O)(C(=O)OC)[C@H](OC(C)=O)[C@]5(CC)C=CCN6CC[C@]43[C@@H]65)C2)C1 [Vinblastine, reference compound]
IC50 ([1]; Homo sapiens, MDA-MB-231, MDA231 cells): 25 nM
IC50 ([2]; Homo sapiens): 26 nM
IC50 ([3]; Lymphocyte): 73 nM
IC50 (LO2 non-cancer cells): 68 nM

B1: Recombinant Cucurmosin: 297 amino acid pro-cucurmosin (SEQ ID 4), type 1 ribosome inactivating protein expressed in E. coli with C-terminal histidine tag (protein, listed as Cucurbita moschata)
chain: MNVRFDLSSATSSSYKTFIKNLREALPKDGKVYDIPVLLSTVMDSRRFILIDLVNYDGQSITAAIDVLNVYIVAYSTGTVSYFFQQVPAQAPKLLFKGTQQRTLPYTGNYENLQTAAKKLRENIELGLPALDSAITTLFHYNAEAAASALLVLIQTTSEAARFRYIELQIANNVGTKFKPSQTIISLENNWSALSKQIQIAKNKNGQFETPVILIDPQGNRVQITNVTSNVVTQNIKLLLNIGATVDTMAANDDVDEMTSGVPIRLSSCGHEMERKSVENGRHANYVSVLEHHHHHH
modifications: C-terminal His tag
Tumor reduction (A549 tumors; 5 μg directly injected into the tumors): 15%
Tumor reduction (A549 tumors; 50 μg directly injected into the tumors): 33%
Tumor Size (A549 tumors; Mouse 2, 5 μg intratumoral, Day 1): 34.7 mm^2
Tumor growth (A549 tumors; Mouse 2, 5 μg intratumoral): −15%
Tumor Size (A549 tumors; Mouse 2, 5 μg intratumoral, Day 3): 38.8 mm^2
Tumor Size (A549 tumors; Mouse 2, 5 μg intratumoral, Day 5): 42.4 mm^2
Tumor Size (A549 tumors; Mouse 2, 5 μg intratumoral, Day 7): 40.8 mm^2
Tumor Size (A549 tumors; Mouse 2, 5 μg intratumoral, Day 9): 39.5 mm^2
Tumor Size (A549 tumors; Mouse 2, 5 μg intratumoral, Day 11): 29.5 mm^2
Tumor Size (A549 tumors; Mouse 3, 50 μg intratumoral, Day 1): 100.6 mm^2
Tumor growth (A549 tumors; Mouse 3, 50 μg intratumoral): −33%
Tumor Size (A549 tumors; Mouse 3, 50 μg intratumoral, Day 3): 104.1 mm^2
Tumor Size (A549 tumors; Mouse 3, 50 μg intratumoral, Day 5): 108.6 mm^2
Tumor Size (A549 tumors; Mouse 3, 50 μg intratumoral, Day 7): 113.1 mm^2
Tumor Size (A549 tumors; Mouse 3, 50 μg intratumoral, Day 9): 78.8 mm^2
Tumor Size (A549 tumors; Mouse 3, 50 μg intratumoral, Day 11): 67.3 mm^2
IC50 ([1]; MDA231 cells): 23 nM
IC50 ([1]; MDA231 cells, listed as recombinant cucurmosin): > 20 nM
IC50 [2]: 22 nM
IC50 ([2]; listed as recombinant cucurmosin): > 20 nM
IC50 [3]: 2500 nM
IC50 (LO2 non-cancer cells): 1200 nM
Toxic effects on the mice (HMEL tumors [4]; 50 μg tail vein injection): no obvious toxic effects
Tumor size increase (HMEL tumors [4]; Mouse 3, 50 μg tail vein at day 0 and day 5, seven days after initial injection): 7%
Side-effects in mice (HMEL tumors [5]; 5 or 50 μg intratumoral, 18 days): did not suffer any noticeable side-effects
Tumor Size (HMEL tumors [5]; Mouse 2 left, 5 μg intratumoral, Day 1): 39.4 mm^2
Tumor Size (HMEL tumors [5]; Mouse 2 left, 5 μg intratumoral, Day 3): 33 mm^2
Tumor Size (HMEL tumors [5]; Mouse 2 left, 5 μg intratumoral, Day 5): 23 mm^2
Tumor Size (HMEL tumors [5]; Mouse 2 left, 5 μg intratumoral, Day 8): 19.7 mm^2
Tumor Size (HMEL tumors [5]; Mouse 2 left, 5 μg intratumoral, Day 15): 12.5 mm^2
Tumor Size (HMEL tumors [5]; Mouse 2 left, 5 μg intratumoral, Day 18): 0 mm^2
Tumor growth (HMEL tumors [5]; Mouse 2 left, 5 μg intratumoral): −100%
Tumor Size (HMEL tumors [5]; Mouse 2 right, 5 μg intratumoral, Day 1): 27.8 mm^2
Tumor Size (HMEL tumors [5]; Mouse 2 right, 5 μg intratumoral, Day 3): 24.8 mm^2
Tumor Size (HMEL tumors [5]; Mouse 2 right, 5 μg intratumoral, Day 5): 18.5 mm^2
Tumor Size (HMEL tumors [5]; Mouse 2 right, 5 μg intratumoral, Day 8): 12.2 mm^2
Tumor Size (HMEL tumors [5]; Mouse 2 right, 5 μg intratumoral, Day 15): 0 mm^2
Tumor Size (HMEL tumors [5]; Mouse 2 right, 5 μg intratumoral, Day 18): 0 mm^2
Tumor growth (HMEL tumors [5]; Mouse 2 right, 5 μg intratumoral): −100%
Effect on tumor growth compared to the negative control (HMEL tumors [5]; Mouse 3 (largest tumor), 5 μg intratumoral): slow the tumor growth compared to the negative control
Tumor Size (HMEL tumors [5]; Mouse 3, 5 μg intratumoral, Day 1): 162.2 mm^2
Tumor Size (HMEL tumors [5]; Mouse 3, 5 μg intratumoral, Day 3): 158 mm^2
Tumor Size (HMEL tumors [5]; Mouse 3, 5 μg intratumoral, Day 5): 151.8 mm^2
Tumor Size (HMEL tumors [5]; Mouse 3, 5 μg intratumoral, Day 8): 186.7 mm^2
Tumor Size (HMEL tumors [5]; Mouse 3, 5 μg intratumoral, Day 15): 206.7 mm^2
Tumor Size (HMEL tumors [5]; Mouse 3, 5 μg intratumoral, Day 18): 231.2 mm^2
Tumor growth (HMEL tumors [5]; Mouse 3, 5 μg intratumoral): 43%
Tumor Size (HMEL tumors [5]; Mouse 4, 50 μg intratumoral, Day 1): 23.9 mm^2
Tumor Size (HMEL tumors [5]; Mouse 4, 50 μg intratumoral, Day 3): 12.2 mm^2
Tumor Size (HMEL tumors [5]; Mouse 4, 50 μg intratumoral, Day 5): 9.4 mm^2
Tumor Size (HMEL tumors [5]; Mouse 4, 50 μg intratumoral, Day 8): 0 mm^2
Tumor Size (HMEL tumors [5]; Mouse 4, 50 μg intratumoral, Day 15): 0 mm^2
Tumor Size (HMEL tumors [5]; Mouse 4, 50 μg intratumoral, Day 18): 0 mm^2
Tumor growth (HMEL tumors [5]; Mouse 4, 50 μg intratumoral): −100%
Effect on tumors smaller than 40 mm^2 (HMEL tumors [5]; either 5 or 50 μg intratumoral, 18 day period): completely abrogated
